Test: soluble on expression in E. coli; label from the status in PepcDB or PDB records

Row | Sequence | soluble on expression in E. coli
1 | MGSDKIHHHHHHDNLQAPGSIKDEEKLRSWLAGYEAEAIKVLREVALSGWRYFNDASPSLKLALDEAENVLTMFVRSTSMQAKQFDMASVTDEKVMRQLGYVSFEGMSALAPSRFADYSQAQAALNRDSKDSTICDKDVPPPCALQKIDMDSIFRNEKDASRLQHLWVSYVTAIAKSKPSYNNIITISNEGAKLNGFANGGAMWRSAFDMSSKVHKAEFDLNKQIDKIYSTIQPFYQLLHAYMRRQLAGIYSNPVGLSKDGPIPAHLFGSLDGGDWSAHYEQTKPFEEESETPEAMLSAFNTQNYTTKKMFVTAYRYFKSAGFPHLPKSYWTSSIFARVWSKDMICHPAAALDMRAPNDFRVKACAQLGEPDFEQAHSLLVQTYYQYLYKDQSLLFREQASPVITDAIANAFAHLSTNPHYLYSQKLVPSEHLDIKDSVIINKLYKESLESFTKLPFTIAADNWRYELFDGTVPKNKLNDRWWEIRNKYEGVRSPQPYNTSNLDALIHNSVSQVHSPATRTLISYVLKFQILKALCQRELFWLSEGCILSEDTTEKLRETMKLGSSITWLKALEMISGKGELDAQPLLEYYEPLINWLRNTNEIDQVVVGWDGEGTP | not soluble
2 | GMTEAFPALVRQDDARYAITVGPDLAVGPPGHAYLFGGASMALALDVAAETVGRPVVQGSLQFVSFTPLGSVLDLTVEVLQSGRTLAQARVAGTVDGRLVFHSGISLGMREGFSARQWALAPPVPQPDNCPPCTTLPAQDDNARYLEGIEVREAGGPEVPSGRTRLWLRRKDGAPLDAASLAMFADFLPIALGRATGCSGGGNSLDNSLRITGAAAPGWCLCDMIIPSSASGFAQGQVTLWDQSGRLLATGAQSLLLKG | soluble
3 | MGSDKIHHHHHHMCLVVAARWPSRLVSSVKEDKMKPSTSRLTLLAGILGLPMALCLPLAAQAQSNQWQVNGFIGQGYISADGSEFIVGESGDTFDVTEAALHLSWMPDEHFRVAGAARYRQWGNLDESGLSADYLFAEYKFILDQGYVGARGGLFKSEAGFYTSTRDVSFTRPGILLPQSVYSDYLRDALLHITGGELFGGHPLLDGSLEWHLTLGDAQTSDDLTRNVVGSEEFGRFDADGYWGADLEYQDDSLRLGLTYFDAKSRYQSHLGGPFADGSLRSKHWIVSAQYRINFLEFTGEYLHWDRYVGGVFVPPELGIYEVRGYGYYLDVRGYLPGDVEVFVRYDHQVQDEKDPDGDKLAERGLPGYFGYAHDWTIGTRWLPAKDWMVAAEYHKVRGAAWVTPILLPNPAVQDKDWSLFAIEISYKFQW | not soluble
4 | MSDLNNAIQGILDDHVARGVVGVSLALCLPGEETSLYQSGYADKFNKMPMTGDHLFRIASCTKSFIATGLHLLVQDGTVDLDEPITRWFPDLPKAAQMPVRILLNHRSGLPDFETSMPMISDKSWTAQEIVDFSFRHGVQKEPWHGMEYSNTGYVLAGMIIAHETGKPYSDHLRSRIFAPLGMKDTWVGTHETFPIEREARGYMHAAADDENPQWDVSGAGDPVDGVWDSTEWFPLSGANAAGDMVSTPRDIVKFLNALFDGRILDQKRLWEMKDNIKPAFFPGSNTVANGHGLLLMRYGSSELKGHLGQIPGHTSIMGRDEETGAALMLIQNSGAGDFESFYLKGVNEPVDRVLEAIKNSRS | soluble
5 | MADWVTGKVTKVQNWTDALFSLTVHAPVLPFTAGQFTKLGLEIDGERVQRAYSYVNSPDNPDLEFYLVTVPDGKLSPRLAALKPGDEVQVVSEAAGFFVLDEVPHCETLWMLATGTAIGPYLSILRLGKDLDRFKNLVLVHAARYAADLSYLPLMQELEKRYEGKLRIQTVVSRETAAGSLTGRIPALIESGELESTIGLPMNKETSHVMLCGNPQMVRDTQQLLKETRQMTKHLRRRPGHMTAEHYW | soluble
6 | MGHHHHHHSHMILEIRTKNFIFRTKHKLDFTPIGCDAKGRIVLGYTEAELCTRGSGYQFIHAADMLYCAESHIRMIKTGESGMIVFRLLTKNNRWTWVQSNARLLYKNGRPDYIIVTQRPLTDEEGTEHLRKRNTKLPFMF | soluble
7 | MGSDKIHHHHHHMSSQNALYMLIDERLRRDELKLPGLPETAEQVRNAAMDPDCNLHDLCHIIQQDTALTARLIRLANSAYLGGRNKAESLMQALTRIGMRRIRTLALAMAMEQVFKPDNDIVQMFSQQFIVESREIAAAAVVITEDLQHRGIGHRLHQDVALLAGMVSRIGVAPILHMANEFEDSFANPSFIKECITQFSSTLGSNILSYWQFTPNLVQVPLCYYNGRMTLNDAITVNYCDIVHLAGLLTGNVKPNKDSVTLVEYQMLGVIKTDDFWQQESVQKSYRQMLDLLS | not soluble
8 | MAHHHHHHMLWRKQCACRTPEHPTKGYRSVNDSLQLMEIRRTSTPLNYKLLRAYQFLPYEVPFPPHTFASQQWREGENVEAHYALYQTCLCMYLVSSDMSLTVTNMLPALGIHEHDVHKVSRTLCAARCST | not soluble
9 | MLLCDTNIWLALALSGHVHHRASRAWLDTINAPGVIHFCRATQQSLLRLLTNRTVLGAYGSPPLTNREAWAAYAAFLDDDRIVLAGAEPDGLEAQWRAFAVRQSPAPKVWMDAYLAAFALTGGFELVTTDTAFTQYGGIELRLLAK | not soluble
10 | MKLAIIIPVYNAEETIKRAILSVDTSVPYEIICINDGSTDQTQHVLTELQQKHPHIKVIHQSNQGAARSRNVGLEAMSEDVDAFLFLDADDEFLPSRIDLMVNAFNKNKETDVVIGQMARDVNGEWQVISTHQSMVKDAIVTLDRKPDILQSIGPGAKLFSSKYAGLRFDEDVVFCEEHTFIVKAFSKARDIQLIPNIVYGYNEREGSVTAQRADTFLPYMSDALKVRQRVMELLLLLDEKIYYSYRMDNLIVSYLIQAHLKKNNKITQSLLESVIEYMKAMQHTHYSGEAMFRIVRAVEQSATHWTKPLYLQWKKALSEVGIGRPGLIRFKLQVIPKKISFSGKESLKRIFKK | not soluble
11 | MSDKIIHLTDDSFDTDVLKADGAILVDFWAEWCGPIEESDDRRYDLVGPCKMIAPILDEIADEYQGKLTVAKLNIDQNPGTAPKYGIRGIPTLLLFKNGEVAATKVGALSKGQLKEFLDANLA | soluble
12 | MQENQQITKKEQYNLNKLQKRLRRNVGEAIADFNMIEEGDRIMVCLSGGKDSYTMLEILRNLQQSAPINFSLVAVNLDQKQPGFPEHVLPEYLEKLGVEYKIVEENTYGIVKEKIPEGKTTCSLCSRLRRGILYRTATELGATKIALGHHRDDILQTLFLNMFYGGKMKGMPPKLMSDDGKHIVIRPLAYCREKDIQRFADAKAFPIIPCNLCGSQPNLQRQVIADMLRDWDKRYPGRIETMFSAMQNVVPSHLCDTNLFDFKGITHGSEVVNGGDLAFDREEIPLQPACWQPEEDENQLDELRLNVVEVKLEHHHHHH | not soluble
13 | TDPGAEELPARIFVALFDYDPLTMSPNPDAAEEELPFKEGQIIKVYGDKDADGFYRGETCARLGLIPCNMVSEIQADDEEMMDQ | soluble
14 | MGSDKIHHHHHHMIPIVDSRIGAYLDGLLPEADPVVAAMEQIARERNIPIVDRQTGRLLYLLARIKQPQLVVVPGDGLGCASWWFARAISISSRVVMIDPDRDNVEHARRMLHDNGLIDRVELQVGDPLGIAAGQRDIDILFMDCDVFNGADVLERMNRCLAKNALLIAVNALRRGSVAESHEDPETAALREFNHHLSRRRDFFTTIVPVGNGVLLGYRLS | not soluble
15 | MTKQLPNLQVALDHSNLKGAITAAVSVGNEVDVIEAGTVCLLQVGSELVEVLRSLFPDKIIVADTKCADAGGTVAKNNAVRGADWMTCICSATIPTMKAARKAIEDINPDKGEIQVELYGDWTYDQAQQWLDAGISQAIYHQSRDALLAGETWGEKDLNKVKKLIEMGFRVSVTGGLSVDTLKLFEGVDVFTFIAGRGITEAKNPAGAARAFKDEIKRIWG | soluble
16 | MGSDKIHHHHHHGEYNKLLKSTDYEYKYEAAKNYFAKGQYNRSATLLNELITILKGTDKAEESLYMLGMSYYNQKDYQTAAQTFITYFNTYPRGTFTELARFHAGKSLFLDTPEPRLDQSSTYQAIQQLQMFMEYFPNSTKKQEAQDMIFALQDKLVLKELYSAKLYYNLGNYLGNNYESCVITAQNALKDYPYTDYREELSILILRARHEMAIYSVEDKKMDRYRETIDEYYAFKNEFPESKYLKEAEKIFNESQKVIKD | not soluble
17 | AQSVPYGISQIKAPALHSQGYTGSNVKVAVIDSGIDSSHPDLNVRGGASFVPSETNPYQDGSSHGTHVAGTIAALNNSIGVLGVSPSASLYAVKVLDSTGSGQYSWIINGIEWAISNNMDVINMSLGGPTGSTALKTVVDKAVSSGIVVAAAAGNEGSSGSTSTVGYPAKYPSTIAVGAVNSSNQRASFSSAGSELDVMAPGVSIQSTLPGGTYGAYNGTCMATPHVAGAAALILSKHPTWTNAQVRDRLESTATYLGNSFYYGKGLINVQAAAQ | soluble
18 | MAHHHHHHMSLPIIRLRTVNSNHATAAYDPVTASCTLYGFLRSVPSRFECDMAMSDFKRGVQAAQGQKCLAKNNANMLNRVFSSVQDRLLRELPKIIPQLARNSSTWRRLLSGAESTSSMSSTPTATRLQDNARSLHNEESTQPSIPSTPLPSAGTGENGNKGNHKNGDHHSSAEEILVEETVSTTSTRFKSPYEQIPPPIHLTASEHKESRATGGMQGEAGERKDASTVVEHRGKGNNLPGKGYRPHPLLLAILERVRSSCSAEENESDREEREFTTIMESREKALRTKLSSAYSMIPPEEKNFKGFLREMEARVAVAQKLFEVQKFEETTIRTTECALKIEVATMRALLHQIVDAVAEAEERHEREGPRSPYYAEECHVMAAIQQALDDLAS | not soluble
19 | MTIDVWMQHPTQRFLHGDMFASLRRWTGGSIPETDIPIEATVSSMDAGGVTLGLLSAWRGPNGQDLISNDAVAEWVRLYPNRFAGLAAVDLDRPMAAVRELRRRVGEGFVGLRVVPWLWGAPPTDRRYYPLFAECVQSAVPFCTQVGHTGPLRPSETGRPIPYIDQVALDFPELVIVCGHVGYPWTEEMVAVARKHENVYIDTSAYTIKRLPGKLVRFMKTDTGQRKVLFGTNYPMIAHTHALTGLDELGLSDEARRDFLHGNAVRVFKLDPRGKVQT | not soluble
20 | MNSTSIYILVALHPIITLTNMPNTAMEATELLKEIQKHDSQQAFRSLYDMYYDRFFRIAFYYLQRDEWAQEVILDVFTTLWNHRKSQLIPDDFNKYSYILIRNAALNYLEKEQRREASPLENMPEISSSNLSPEEQMMNEELFNIYENSLNELPERCRTIFIKVREEKQSYASVAEELNISPKTVDAQLQKAVTRLKEKINNYFRNRR | not soluble
21 | MGSDKIHHHHHHMPLNMNRDVFITAAVTGSGGTQDKSPHVPRSPKEIAASAIEAARAGAAVVHCHVRDPETGAPSRRLELYRELTDRIRDSEVDVVLNLTAGMGGDIVFGSTEAPLPVNEAATDMIGATERMAHIAECLPEICTLDCGTMNFAEADYVMTNTPGMLRAMGQMMTDLGVKPEIEAFDTGHLWFAKQLVKEGILEPNALVQLCMGVPWGAPNDLNTFMAMVNNVPSDWTWSAFSLGRDQMPFAAASVLAGGNVRVGLEDNLFLDKGVLATNAQLVERAVSVIEGMGAKIVGPDAVREKLGLTKRAPVAA | not soluble
22 | MIDQFMSMSELIDHTEEHKDWQILYNERVAKSLITAVHGGAIERGTSEIAQLISEIGGYSFYTFKGIRKNKNHELHVTSKHFDEPILNELVPTHEVVVSLHGCMGNDVAVYIGGKDLELSYEITQQLQKIGIVVKPAPAHIAGMQTENFVNKGKRDAGVQLELTVALRKQCFKNNKYNLHDRENRENWSQLMFSFSTAIANALKILNDLEHHHHHH | not soluble
23 | MKIGVLGLQGAVREHVRAIEACGAEAVIVKKSEQLEGLDGLVLPGGESTTMRRLIDRYGLMEPLKQFAAAGKPMFGTCAGLILLAKRIVGYDEPHLGLMDITVERNSFGRQRESFEAELSIKGVGDGFVGVFIRAPHIVEAGDGVDVLATYNDRIVAARQGQFLGCSFHPELTDDHRLMQYFLNMVKEAKMASSLK | soluble
